{"source": "patent US7323170", "target": "human B7.1, membrane associated (human) (UniProt P33681)", "sequence (P33681 35-288)": "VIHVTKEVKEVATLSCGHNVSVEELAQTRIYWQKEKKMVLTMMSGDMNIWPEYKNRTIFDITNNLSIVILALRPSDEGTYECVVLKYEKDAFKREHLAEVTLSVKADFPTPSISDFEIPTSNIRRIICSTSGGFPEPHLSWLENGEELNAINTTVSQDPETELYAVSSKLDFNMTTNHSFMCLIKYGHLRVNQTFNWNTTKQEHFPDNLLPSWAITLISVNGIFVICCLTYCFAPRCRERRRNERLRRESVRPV", "assay": "cell-based or functional assay", "data": [{"substance": "murine anti-B7.1 monoclonal antibody L307.4", "values": [{"measurement": "inhibition of IL-2 production in mixed lymphocyte reaction (concentration at which inhibitory)", "value": 10, "unit": "µg/mL"}]}]}
